# No end group written: not given here.
# Tests used:
# Assay in all cases: Kinase Profiling Assay
# Format in all cases: biochemical
# Settings in all cases: peptide 100 μM
# PKCμ(h) = molecular target: T1, PKCμ(h) (Homo sapiens, UniProt Q15139)
# T1 sequence (Q15139 1-912): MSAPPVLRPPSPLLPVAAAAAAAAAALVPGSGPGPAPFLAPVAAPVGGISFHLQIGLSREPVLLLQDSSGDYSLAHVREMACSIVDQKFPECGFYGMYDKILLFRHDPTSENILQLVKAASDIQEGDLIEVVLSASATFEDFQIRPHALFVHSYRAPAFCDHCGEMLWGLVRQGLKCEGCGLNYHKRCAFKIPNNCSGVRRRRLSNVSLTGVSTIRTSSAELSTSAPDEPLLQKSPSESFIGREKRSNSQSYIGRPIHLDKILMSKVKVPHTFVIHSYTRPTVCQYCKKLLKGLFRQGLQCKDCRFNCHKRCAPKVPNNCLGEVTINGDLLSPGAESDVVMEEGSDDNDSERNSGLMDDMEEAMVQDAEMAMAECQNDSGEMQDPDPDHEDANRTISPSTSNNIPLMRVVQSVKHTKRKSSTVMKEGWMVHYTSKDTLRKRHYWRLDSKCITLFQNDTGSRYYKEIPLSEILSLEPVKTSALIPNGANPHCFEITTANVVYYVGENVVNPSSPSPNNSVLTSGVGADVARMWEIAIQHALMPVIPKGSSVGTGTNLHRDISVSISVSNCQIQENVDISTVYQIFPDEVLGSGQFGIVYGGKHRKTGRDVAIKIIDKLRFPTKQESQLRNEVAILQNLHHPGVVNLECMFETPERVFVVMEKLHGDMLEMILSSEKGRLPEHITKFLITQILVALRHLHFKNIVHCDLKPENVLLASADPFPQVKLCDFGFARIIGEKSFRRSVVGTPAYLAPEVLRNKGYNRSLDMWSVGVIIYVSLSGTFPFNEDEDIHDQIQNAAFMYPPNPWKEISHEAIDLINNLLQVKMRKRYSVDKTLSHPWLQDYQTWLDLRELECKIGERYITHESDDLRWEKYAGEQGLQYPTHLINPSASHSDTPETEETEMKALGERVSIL
# How it was run: (§1)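 Specificity of MK2 inhibitory peptides is assessed against a panel of 266 human kinases. Kinase transfers a radiolabeled phosphate from ATP onto a positively charged substrate, which is trapped on a negatively charged filter and quantified by scintillation counting against full-activity control; duplicate determinations.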
# PKCβI(h) = PKCβI(h) (Homo sapiens, UniProt P05771)
# How it was run: as §1
# EphA3(h) = molecular target: T2, EphA3(h) (Homo sapiens, UniProt P29320)
# T2 sequence (P29320 21-983): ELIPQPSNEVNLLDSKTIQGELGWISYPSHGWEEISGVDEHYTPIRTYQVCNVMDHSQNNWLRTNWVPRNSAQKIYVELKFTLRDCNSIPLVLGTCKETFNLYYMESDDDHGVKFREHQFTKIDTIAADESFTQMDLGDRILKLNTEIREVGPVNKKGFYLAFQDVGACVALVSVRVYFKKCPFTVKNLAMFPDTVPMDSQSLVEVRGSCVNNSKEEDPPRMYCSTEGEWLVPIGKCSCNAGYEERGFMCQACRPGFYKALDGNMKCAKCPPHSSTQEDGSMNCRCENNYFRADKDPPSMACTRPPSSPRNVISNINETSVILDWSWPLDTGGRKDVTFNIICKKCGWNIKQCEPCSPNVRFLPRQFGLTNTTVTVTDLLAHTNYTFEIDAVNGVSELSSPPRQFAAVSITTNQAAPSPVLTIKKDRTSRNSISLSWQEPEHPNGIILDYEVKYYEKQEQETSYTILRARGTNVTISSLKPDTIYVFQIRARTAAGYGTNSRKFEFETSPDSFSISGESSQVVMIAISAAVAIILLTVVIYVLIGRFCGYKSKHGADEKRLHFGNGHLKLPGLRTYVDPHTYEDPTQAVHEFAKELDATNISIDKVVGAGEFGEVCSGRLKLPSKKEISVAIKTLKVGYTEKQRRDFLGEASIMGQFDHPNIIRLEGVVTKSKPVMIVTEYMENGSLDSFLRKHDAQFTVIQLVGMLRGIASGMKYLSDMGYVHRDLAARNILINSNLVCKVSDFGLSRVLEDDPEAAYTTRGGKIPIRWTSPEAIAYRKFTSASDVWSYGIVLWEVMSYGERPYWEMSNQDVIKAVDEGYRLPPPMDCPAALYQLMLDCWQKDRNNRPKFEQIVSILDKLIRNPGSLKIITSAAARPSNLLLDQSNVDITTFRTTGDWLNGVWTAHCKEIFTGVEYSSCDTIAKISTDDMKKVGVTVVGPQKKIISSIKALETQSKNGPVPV
# How it was run: as §1
# MKK7β(h) = molecular target: T3, MKK7β(h) (Homo sapiens, UniProt O14733)
# T3 construct: purchased Millipore
# T3 sequence (O14733 1-419): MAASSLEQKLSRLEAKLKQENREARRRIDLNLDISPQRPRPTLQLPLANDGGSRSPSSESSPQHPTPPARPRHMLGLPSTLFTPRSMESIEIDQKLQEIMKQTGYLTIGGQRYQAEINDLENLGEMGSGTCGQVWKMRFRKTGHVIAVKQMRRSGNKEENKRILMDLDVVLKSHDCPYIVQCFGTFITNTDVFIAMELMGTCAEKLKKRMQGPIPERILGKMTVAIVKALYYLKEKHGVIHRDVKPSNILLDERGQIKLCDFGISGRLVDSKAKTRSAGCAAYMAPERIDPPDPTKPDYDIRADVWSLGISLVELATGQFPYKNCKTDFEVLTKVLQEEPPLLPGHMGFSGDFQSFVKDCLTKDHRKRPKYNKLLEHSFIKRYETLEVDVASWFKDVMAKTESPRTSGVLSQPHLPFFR
# How it was run: as §1
# Chain of PKCβI(h) (P05771 whole entry): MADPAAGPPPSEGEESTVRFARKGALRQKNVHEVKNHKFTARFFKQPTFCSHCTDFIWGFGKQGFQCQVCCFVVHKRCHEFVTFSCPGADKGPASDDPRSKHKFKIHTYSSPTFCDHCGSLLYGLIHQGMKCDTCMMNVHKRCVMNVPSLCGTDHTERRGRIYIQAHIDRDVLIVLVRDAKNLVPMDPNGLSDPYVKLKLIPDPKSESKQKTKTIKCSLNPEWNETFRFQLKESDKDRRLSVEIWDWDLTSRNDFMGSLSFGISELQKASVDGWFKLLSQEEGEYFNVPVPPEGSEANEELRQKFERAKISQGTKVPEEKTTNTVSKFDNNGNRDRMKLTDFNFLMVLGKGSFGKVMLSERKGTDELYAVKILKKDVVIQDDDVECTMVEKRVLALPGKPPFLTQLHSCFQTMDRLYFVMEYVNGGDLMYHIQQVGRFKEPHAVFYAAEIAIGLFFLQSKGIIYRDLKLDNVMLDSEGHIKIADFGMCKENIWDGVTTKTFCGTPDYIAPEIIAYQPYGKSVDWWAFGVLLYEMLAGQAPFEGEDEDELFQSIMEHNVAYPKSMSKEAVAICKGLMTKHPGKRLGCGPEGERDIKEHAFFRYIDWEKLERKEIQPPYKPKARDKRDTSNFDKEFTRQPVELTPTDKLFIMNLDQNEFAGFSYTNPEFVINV
Sequence,% activity (PKCμ(h)) [%],% activity (PKCβI(h)) [%],% activity (EphA3(h)) [%],% activity (MKK7β(h)) [%]
FAKLAARLYRKALARQLGVAA [MMI-0300],22,78,6,100
HRRIKAWLKKIKALARQLGVAA (Mammal) [MMI-0500],10,1,33,
KAFAKLAARLYRKALARQLGVAA [MMI-0400],14,78,12,94
YARAAARQARAKALARQLGVAA [MMI-0100],79,,,137
YARAAARQARAKALNRQLGVA (Mammal) [MMI-0200],73,98,,

# From US20150258192A1, “COMPOSITIONS AND METHODS FOR PREVENTING OR TREATING CHRONIC LUNG ALLOGRAFT DYSFUNCTION (CLAD) AND IDIOPATHIC PULMONARY FIBROSIS (IPF)” (priority 2014, published 2015)
